{"source": "paper PMC4822156", "about": "“Structural basis for ligand-dependent dimerization of phenylalanine hydroxylase regulatory domain” (Scientific Reports, 2016)", "proteins": {"B1": {"name": "regulatory domain of human tyrosine hydroxylase (hTH-RD), residues 65-160 (domain or fragment, UniProt P07101 96-191, looked up)", "chain": "GDPLEAVAFEEKEGKAVLNLLFSPRATKPSALSRAVKVFETFEAKIHHLETRPAQRPRAGGPHLEYFVRLEVRRGDLAALLSGVRQVSEDVRSPAG", "notes": "tyrosine hydroxylase (TH), human, regulatory domain, residues 65-160; which isoform the numbers count on is told only by GenBank number 88900503; Vector pFB-Lic-Bse; source: insect sf9 cells, purified (as the PAH domains); not shown: His6, N-terminal, cleaved"}}, "target": "the molecule itself", "experiment": "SEC-MALS; hTH-RD in the absence of amino acid ligand (Supplementary Fig. S2C)", "data": [{"protein": "B1", "values": [{"measurement": "stoichiometry N", "value": 2}]}]}
